Assay: Hematology profile (CBC with differential, platelet count) in healthy men;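 for Platelet Count, Median Change from Baseline: Thousands of platelets per mm³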;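 for Platelet Count, Median: Thousands of platelets per mm³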
Type: in vivo, human
Protocol: Pharmacological Effect: The following evaluations (under efficacy and safety in the protocol) were performed: • Effects on the number of mature blood cells: • 1. CBC (with differential), platelet count, reticulocyte count. • Effects on early hematopoietic progenitor cells and mature lymphocyte subsets in the periphery: • 1. Flow cytometry to evaluate frequency of peripheral blood progenitor cells (eg, CD34^+) and lymphocyte subsets (eg, CD3, CD4, CD8) in peripheral blood. • 2. Collection of blood for later possible culture for progenitor cells (eg, colony forming units-granulocyte/macrophage [CFU-GM]) to evaluate potential effects on CD34^+ hematopoietic progenitor cells in peripheral blood. • 3.
The effect of USB003 on the number of mature blood cells was assessed by the complete blood count with differential, platelet and reticulocyte counts. The effects on early hematopoietic progenitor cells and mature lymphocyte subsets in the periphery were assessed by flow cytometry. In addition, blood was collected and processed to enable culture of progenitors at a later time.
Red blood cell (RBC) count, RBC indices, white blood cell count (WBC) with differential, reticulocyte count, platelet count, hemoglobin (Hb), hematocrit (Hct), plasma hemoglobin, peripheral flow cytometry, including CD34^+, flow cytometry for enumeration of CD3, CD4, and CD8 lymphocytes, and culture for progenitor cells in peripheral blood including colony-forming units-granulocyte/macrophage (CFU-GM).

[1] = 200 μg/kg, N = 9, baseline to Day 8
[2] = 200 μg/kg, N = 9, baseline to Day 20
[3] = 300 μg/kg, N = 8, baseline to Day 8

With Asp-Arg-Val-Tyr-Ile-His-Pro [USB003] the absolute neutrophil concentrations (200 ug/kg and 300 ug/kg, at 20 days) was “apparent dose-related increase”, the “shifts in eosinophils from high at baseline to normal” value (200 μg/kg dose group, Day 8 and Day 20, compared with placebo) was “notable number of subjects” and the “Absolute Eosinophils shift H-N, number of subjects” value (“Absolute Eosinophils shift H-N” below) [1] was 1. The “Absolute Eosinophils shift L-N, number of subjects” value (from here on “Absolute Eosinophils shift L-N”) [1] was “— (“—” = 0)”, the “Absolute Eosinophils shift N-H, number of subjects” value (shortened to “Absolute Eosinophils shift N-H”) [1] was “— (“—” = 0)” and the “Absolute Eosinophils shift N-L, number of subjects” value (“Absolute Eosinophils shift N-L” below) [1] was “— (“—” = 0)”. For the same substance, the “Absolute Reticulocytes shift H-N, number of subjects” value (from here on “Absolute Reticulocytes shift H-N”) [1] was “— (“—” = 0)”, the “Absolute Reticulocytes shift L-N, number of subjects” value (“Absolute Reticulocytes shift L-N” for short) [1] was “— (“—” = 0)” and the “Absolute Reticulocytes shift N-H, number of subjects” value (“Absolute Reticulocytes shift N-H” for short) [1] was “— (“—” = 0)”. For the same substance, the “Absolute Reticulocytes shift N-L, number of subjects” value (“Absolute Reticulocytes shift N-L” for short) [1] was “— (“—” = 0)”, the “Eosinophils shift H-N, number of subjects” value [1] was 3 and the “Eosinophils shift L-N, number of subjects” value [1] was “— (“—” = 0)”. The “Eosinophils shift N-H, number of subjects” value [1] was “— (“—” = 0)”, the “Eosinophils shift N-L, number of subjects” value [1] was “— (“—” = 0)” and the “Hematocrit shift H-N, number of subjects” value [1] was “— (“—” = 0)”. The “Hematocrit shift L-N, number of subjects” value [1] was “— (“—” = 0)”, the “Hematocrit shift N-H, number of subjects” value [1] was “— (“—” = 0)” and the “Hematocrit shift N-L, number of subjects” value [1] was “— (“—” = 0)”. For the same substance, the “Hemoglobin shift H-N, number of subjects” value [1] was “— (“—” = 0)”, the “Hemoglobin shift L-N, number of subjects” value [1] was “— (“—” = 0)” and the “Hemoglobin shift N-H, number of subjects” value [1] was “— (“—” = 0)”. The “Hemoglobin shift N-L, number of subjects” value [1] was “— (“—” = 0)”, the “Lymphocytes shift H-N, number of subjects” value [1] was 1 and the “Lymphocytes shift L-N, number of subjects” value [1] was 1. For the same substance, the “Lymphocytes shift N-H, number of subjects” value [1] was “— (“—” = 0)”, the “Lymphocytes shift N-L, number of subjects” value [1] was “— (“—” = 0)” and the “Plasma Hemoglobin shift H-N, number of subjects” value [1] was “— (“—” = 0)”. The “Plasma Hemoglobin shift L-N, number of subjects” value [1] was “— (“—” = 0)”, the “Plasma Hemoglobin shift N-H, number of subjects” value [1] was “— (“—” = 0)” and the “Plasma Hemoglobin shift N-L, number of subjects” value [1] was “— (“—” = 0)”. The “Platelet Count shift H-N, number of subjects” value [1] was “— (“—” = 0)”, the “Platelet Count shift L-N, number of subjects” value [1] was “— (“—” = 0)” and the “Platelet Count shift N-H, number of subjects” value [1] was 1. The “Platelet Count shift N-L, number of subjects” value [1] was “— (“—” = 0)”, the “RBC shift H-N, number of subjects” value [1] was “— (“—” = 0)” and the “RBC shift L-N, number of subjects” value [1] was “— (“—” = 0)”. The “RBC shift N-H, number of subjects” value [1] was “— (“—” = 0)”, the “RBC shift N-L, number of subjects” value [1] was “— (“—” = 0)” and the “Segmented Neutrophils shift H-N, number of subjects” value [1] was 1. For the same substance, the “Segmented Neutrophils shift L-N, number of subjects” value [1] was “— (“—” = 0)”, the “Segmented Neutrophils shift N-H, number of subjects” value [1] was “— (“—” = 0)” and the “Segmented Neutrophils shift N-L, number of subjects” value [1] was “— (“—” = 0)”. The “Absolute Eosinophils shift H-N” value [2] was “— (“—” = 0)”, the “Absolute Eosinophils shift L-N” value [2] was “— (“—” = 0)” and the “Absolute Eosinophils shift N-H” value [2] was 1. For the same substance, the “Absolute Eosinophils shift N-L” value [2] was “— (“—” = 0)”, the “Absolute Neutrophils shift H-N, number of subjects” value [2] was “— (“—” = 0)” and the “Absolute Neutrophils shift L-N, number of subjects” value [2] was “— (“—” = 0)”. The “Absolute Neutrophils shift N-H, number of subjects” value [2] was “— (“—” = 0)”, the “Absolute Neutrophils shift N-L, number of subjects” value [2] was “— (“—” = 0)” and the “Absolute Reticulocytes shift H-N” value [2] was “— (“—” = 0)”. For the same substance, the “Absolute Reticulocytes shift L-N” value [2] was “— (“—” = 0)”, the “Absolute Reticulocytes shift N-H” value [2] was 2 and the “Absolute Reticulocytes shift N-L” value [2] was “— (“—” = 0)”. The “Eosinophils shift H-N, number of subjects” value [2] was 2, the “Eosinophils shift L-N, number of subjects” value [2] was “— (“—” = 0)” and the “Eosinophils shift N-H, number of subjects” value [2] was “— (“—” = 0)”. For the same substance, the “Eosinophils shift N-L, number of subjects” value [2] was “— (“—” = 0)”, the “Hematocrit shift H-N, number of subjects” value [2] was “— (“—” = 0)” and the “Hematocrit shift L-N, number of subjects” value [2] was “— (“—” = 0)”. The “Hematocrit shift N-H, number of subjects” value [2] was “— (“—” = 0)”, the “Hematocrit shift N-L, number of subjects” value [2] was “— (“—” = 0)” and the “Hemoglobin shift H-N, number of subjects” value [2] was “— (“—” = 0)”. For the same substance, the “Hemoglobin shift L-N, number of subjects” value [2] was 1, the “Hemoglobin shift N-H, number of subjects” value [2] was “— (“—” = 0)” and the “Hemoglobin shift N-L, number of subjects” value [2] was 1. The “Lymphocytes shift H-N, number of subjects” value [2] was “— (“—” = 0)”, the “Lymphocytes shift L-N, number of subjects” value [2] was 1 and the “Lymphocytes shift N-H, number of subjects” value [2] was “— (“—” = 0)”. The “Lymphocytes shift N-L, number of subjects” value [2] was “— (“—” = 0)”, the “Monocytes shift H-N, number of subjects” value [2] was “— (“—” = 0)” and the “Monocytes shift L-N, number of subjects” value [2] was “— (“—” = 0)”. For the same substance, the “Monocytes shift N-H, number of subjects” value [2] was “— (“—” = 0)”, the “Monocytes shift N-L, number of subjects” value [2] was “— (“—” = 0)” and the “Plasma Hemoglobin shift H-N, number of subjects” value [2] was “— (“—” = 0)”. The “Plasma Hemoglobin shift L-N, number of subjects” value [2] was “— (“—” = 0)”, the “Plasma Hemoglobin shift N-H, number of subjects” value [2] was 2 and the “Plasma Hemoglobin shift N-L, number of subjects” value [2] was “— (“—” = 0)”. For the same substance, the “Platelet Count shift H-N, number of subjects” value [2] was “— (“—” = 0)”, the “Platelet Count shift L-N, number of subjects” value [2] was “— (“—” = 0)” and the “Platelet Count shift N-H, number of subjects” value [2] was 1. The “Platelet Count shift N-L, number of subjects” value [2] was “— (“—” = 0)”, the “RBC shift H-N, number of subjects” value [2] was “— (“—” = 0)” and the “RBC shift L-N, number of subjects” value [2] was “— (“—” = 0)”. For the same substance, the “RBC shift N-H, number of subjects” value [2] was “— (“—” = 0)”, the “RBC shift N-L, number of subjects” value [2] was “— (“—” = 0)” and the “RDW shift H-N, number of subjects” value [2] was “— (“—” = 0)”. The “RDW shift L-N, number of subjects” value [2] was “— (“—” = 0)”, the “RDW shift N-H, number of subjects” value [2] was 1 and the “RDW shift N-L, number of subjects” value [2] was “— (“—” = 0)”. For the same substance, the “Segmented Neutrophils shift H-N, number of subjects” value [2] was 1, the “Segmented Neutrophils shift L-N, number of subjects” value [2] was “— (“—” = 0)” and the “Segmented Neutrophils shift N-H, number of subjects” value [2] was “— (“—” = 0)”. For the same substance, the “Segmented Neutrophils shift N-L, number of subjects” value [2] was “— (“—” = 0)”, the “WBC shift H-N, number of subjects” value [2] was “— (“—” = 0)” and the “WBC shift L-N, number of subjects” value [2] was “— (“—” = 0)”. The “WBC shift N-H, number of subjects” value [2] was “— (“—” = 0)”, the “WBC shift N-L, number of subjects” value [2] was “— (“—” = 0)” and the “Absolute Neutrophils, Median” value (200 μg/kg, Baseline) was 3.00 thousands/mm^3. The “Hematocrit, Median” value (200 μg/kg, Baseline) was 46.50%, the “Hemoglobin, Median” value (200 μg/kg, Baseline) was 15.30 g/dL and the “Lymphocytes, Median” value (200 μg/kg, Baseline) was 35.80%. For the same substance, the “Platelet Count, Median” value (200 μg/kg, Baseline) was 263.0 thousands/mm^3, the “WBC, Median” value (200 μg/kg, Baseline) was 5.60 thousands/mm^3 and the “Absolute Neutrophils, Median” value (200 μg/kg, Day 8) was 3.60 thousands/mm^3. The “Absolute Neutrophils, Median Change from Baseline” value (200 μg/kg, Day 8) was 0.45 thousands/mm^3, the “Hematocrit, Median” value (200 μg/kg, Day 8) was 43.65% and the “Hematocrit, Median Change from Baseline” value (200 μg/kg, Day 8) was −1.65%. The “Hemoglobin, Median” value (200 μg/kg, Day 8) was 15.10 g/dL, the “Hemoglobin, Median Change from Baseline” value (200 μg/kg, Day 8) was -0.20 g/dL and the “Lymphocytes, Median” value (200 μg/kg, Day 8) was 32.40%. For the same substance, the “Lymphocytes, Median Change from Baseline” value (200 μg/kg, Day 8) was −2.25%, the “Platelet Count, Median” value (200 μg/kg, Day 8) was 242.0 thousands/mm^3 and the “Platelet Count, Median Change from Baseline” value (200 μg/kg, Day 8) was 1.0 thousands/mm^3. The “WBC, Median” value (200 μg/kg, Day 8) was 6.65 thousands/mm^3, the “WBC, Median Change from Baseline” value (200 μg/kg, Day 8) was 0.35 thousands/mm^3 and the “Absolute Neutrophils, Median” value (200 μg/kg, Day 20) was 3.80 thousands/mm^3. For the same substance, the “Absolute Neutrophils, Median Change from Baseline” value (200 μg/kg, Day 20) was 0.20 thousands/mm^3, the “Hematocrit, Median” value (200 μg/kg, Day 20) was 43.80% and the “Hematocrit, Median Change from Baseline” value (200 μg/kg, Day 20) was −1.50%. The “Hemoglobin, Median” value (200 μg/kg, Day 20) was 14.50 g/dL, the “Hemoglobin, Median Change from Baseline” value (200 μg/kg, Day 20) was -0.70 g/dL and the “Lymphocytes, Median” value (200 μg/kg, Day 20) was 31.50%. For the same substance, the “Lymphocytes, Median Change from Baseline” value (200 μg/kg, Day 20) was −1.80%, the “Platelet Count, Median” value (200 μg/kg, Day 20) was 250.0 thousands/mm^3 and the “Platelet Count, Median Change from Baseline” value (200 μg/kg, Day 20) was −5 thousands/mm^3. The “WBC, Median” value (200 μg/kg, Day 20) was 6.20 thousands/mm^3, the “WBC, Median Change from Baseline” value (200 μg/kg, Day 20) was 0.40 thousands/mm^3 and the WBC concentration (300 ug/kg group, at 20 days) was “relative increase”. For the same substance, the “Absolute Eosinophils shift H-N” value [3] was “— (“—” = 0)”, the “Absolute Eosinophils shift L-N” value [3] was “— (“—” = 0)” and the “Absolute Eosinophils shift N-H” value [3] was “— (“—” = 0)”. For the same substance, the “Absolute Eosinophils shift N-L” value [3] was “— (“—” = 0)”, the “Absolute Reticulocytes shift H-N” value [3] was “— (“—” = 0)” and the “Absolute Reticulocytes shift L-N” value [3] was “— (“—” = 0)”. For the same substance, the “Absolute Reticulocytes shift N-H” value [3] was 1, the “Absolute Reticulocytes shift N-L” value [3] was “— (“—” = 0)” and the “Eosinophils shift H-N, number of subjects” value [3] was 1.
